From patent US20150132779A1 come the findings set out here.

The target of this assay is M1-linked polyubiquitin chains (UniProt P0CG48). In words: cell-based or functional assay.

For the substance “trypsin-resistant tandem ubiquitin binding entity (TR-TUBE) (designed binder)”, the Ub-ProT assay: length of chain protected from trypsinization (ubiquitin molecules) was less than 16.
